The source of these data is patent CN114907478A (MABWELL SHANGHAI BIOSCIENCE CO LTD, dated 2022).

The target of test [1] is T1, hLAG-3-mFc融合蛋白 (human, UniProt P18627 23-450).
T1 construct: range 1-450; no cleavage site is stated; also called hLAG-3-mFc重组蛋白; 人LAG-3-mFc重组蛋白; not shown: mouse Fc
T1 sequence (looked up): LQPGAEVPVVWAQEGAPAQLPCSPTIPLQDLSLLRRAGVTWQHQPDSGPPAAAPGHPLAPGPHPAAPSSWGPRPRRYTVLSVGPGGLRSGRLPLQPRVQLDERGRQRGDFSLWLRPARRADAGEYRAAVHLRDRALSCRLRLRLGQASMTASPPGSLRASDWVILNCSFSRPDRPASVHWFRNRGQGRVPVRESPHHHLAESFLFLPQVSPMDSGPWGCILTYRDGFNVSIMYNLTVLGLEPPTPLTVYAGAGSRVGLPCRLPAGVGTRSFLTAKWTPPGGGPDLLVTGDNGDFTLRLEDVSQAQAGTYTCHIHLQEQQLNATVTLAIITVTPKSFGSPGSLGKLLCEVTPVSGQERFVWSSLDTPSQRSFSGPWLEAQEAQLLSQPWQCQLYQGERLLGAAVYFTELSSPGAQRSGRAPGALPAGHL
The test can be described thus: BLI (ForteBio Octet QKe), antibody captured on AHC probe, hLAG-3-mFc 60 nM in solution, 1:1 fit.

Test [2] addresses T1, hLAG-3-mFc融合蛋白. Description: FACS competition: blocking of hLAG-3-mFc (2 ug/ml) binding to HLA on 293/rhHLA cells.

B1: ch3A10嵌合抗体 (antibody, human IgG4, V domains shown)
VH: EVQLQQSGAELVRPGASVKLSCTASGFNIKDDYMHWMKQRPEQGLEWIGWIDPENGETEYASKFQGKATITADTYSNTVYLQFSSLTSEDTGVYYCTIFDYWGQGTSLTVSS
VL: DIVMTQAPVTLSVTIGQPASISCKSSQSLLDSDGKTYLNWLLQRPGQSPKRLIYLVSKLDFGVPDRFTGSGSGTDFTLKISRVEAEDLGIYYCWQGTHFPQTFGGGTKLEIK
Regarding B1, the Kd (in general, the concentration at which binding is half-saturated) with hLAG-3-mFc融合蛋白 [1] came out at 0.128 nM. In addition, in the test with hLAG-3-mFc融合蛋白 [2], the IC50 – broadly, the concentration at which inhibition is half-maximal – turned out to be 3.33 µg/mL.

B2: ch4C8嵌合抗体 (antibody, human IgG4, V domains shown)
VH: EVQLVESGGGLVKIGGSLKLSCAGSGFTFSNYAMSWVRQTPEKRLEWVATITYGTTYTFYSDNVKGRFTISRDNAKNNLSLQMSHLKSEDTAMYYCTRGEYGSSFAYWGQGTLVTVSA
VL: DIVMTQSQKFMSTSVGDRVSITCKASQNVRTAVAWYQQKPGQSPKALIYLASNRHTGVPDRFTGSGSETDFTLTINNVQSEDLADYFCLQHWNYPLTFGGGTKLEIK
Take B2: the Kd in the test with hLAG-3-mFc融合蛋白 [1] is 0.427 nM. For the same molecule, in the test with hLAG-3-mFc融合蛋白 [2], the IC50 was 1.28 µg/mL.

B3: ch7F10嵌合抗体 (antibody, human IgG4, V domains shown)
VH: EVKLMESGAELVKPGASVKLSCKVSGVNIKDDYMHWVKQRTEQGLEWIGRIDPEDVETKYDPKFQGKATITSDTSSNTGYLQLSSLTSEDTAVYYCARSFYSNYVNYFDQWGQGTTLTVSS
VL: DIVMTQAPKSMSMSVGERVTLSCKASENVGTYVSWFQQKPEQSPKLLIYGASNRYTGVPDRFTGSGSATDFTLTISSVQAEDLADYHCGQSYSYPYTFGGGTKLEIK
As for B3, in the test with hLAG-3-mFc融合蛋白 [1], binding was put at a Kd of 0.117 nM. Further, the IC50 in the test with hLAG-3-mFc融合蛋白 [2] was 1.21 µg/mL.

B4: ch7F1嵌合抗体 (antibody, human IgG4, V domains shown)
VH: EVQLVESGPGLVAPSQSLSITCTVSGFSLTDYAVSWIRQPPGKGLEWLGVVWGDGSTNYHSALISRLIITRDNSKRQVFLKLNSLQTDDTATYYCAKGGGGMDYWGQGTSVTVSS
VL: DIVLSQSPAILSASPGEKVTVTCRASSSVSYMHWFQQKPGSSPKPWIYATSNLASGVPVRFSGSGSGTSYSLTISRVEAEDAATYYCQHYNTNPPTWTFGGGSKLEIK
Molecule B4 registered a Kd with hLAG-3-mFc融合蛋白 [1] of 5.52 nM. The IC50 in the test with hLAG-3-mFc融合蛋白 [2] came to 11.5 µg/mL.

B5: ch7C5嵌合抗体 (antibody, V domains shown)
VH: EVQLQQSGAELARPGASVKLSCKASGYTFTSYGISWVKQRTGQGLEWIGEIYPRSDNTYYNGKFKGKATLTADKSSSTAYMELRSLTSEDSAVFFCARRAFYYYGSNYYAMDYWGQGTSVTVSS
VL: DVLMTQTPLFLPVSLGDQASISCRSSQSIVHSNGDTYLEWYLRKPGQSPKLLIFKVSNRFSGVPDRFSGSGSGTDFTLKISRVEAEDLGVYYCFQGSHVPWTFGGGTKLEIK
For B5, the Kd in the test with hLAG-3-mFc融合蛋白 [1] is 0.365 nM. Also, the IC50 in the test with hLAG-3-mFc融合蛋白 [2] stood at 1.87 µg/mL.

B6: ch10B4嵌合抗体 (antibody, human IgG4, V domains shown)
VH: EVQLQQSGAELARPGASVKLSCKASGYSFTNYGISWMKQRTGQGLEWIGEIYPRGGNTYYNGKFKGKATLTADQSSSTAYMELRSLTSEDSAVYFCARRAFYYFGSNYYAMDYWGQGTSVTVSS
VL: DVVMTQTPLFLPVSLGDQASISCRSSQSIVHSNGDTYLEWYLQKPGQSPKLLIYKVSNRFSGVPDRFSGSGSGTDFTLKISRVEAEDLGVYYCFQGSHVPWTFGGGTKLAIK
In the case of B6, binding with hLAG-3-mFc融合蛋白 [1] was put at a Kd of 0.0884 nM. In the test with hLAG-3-mFc融合蛋白 [2], this molecule came in with an IC50 of 2 µg/mL.
